Measured values published in paper PMC6891085.
Where two headings read alike, the source gives them in different places.

Experiments:
Assay in all cases: co-sedimentation
[1] = target: taxol-stabilized microtubules (MTs) of porcine brain tubulin (porcine) (UniProt P02550)
[2] = target: taxol-stabilized microtubules (MTs) of porcine brain tubulin (porcine) (UniProt P02550); remark: listed apart in the source
[3] = target: subtilisin-treated MTs (s-MTs) (porcine) (UniProt P02550)

Chain of UniProt P02550 (P02550 whole entry): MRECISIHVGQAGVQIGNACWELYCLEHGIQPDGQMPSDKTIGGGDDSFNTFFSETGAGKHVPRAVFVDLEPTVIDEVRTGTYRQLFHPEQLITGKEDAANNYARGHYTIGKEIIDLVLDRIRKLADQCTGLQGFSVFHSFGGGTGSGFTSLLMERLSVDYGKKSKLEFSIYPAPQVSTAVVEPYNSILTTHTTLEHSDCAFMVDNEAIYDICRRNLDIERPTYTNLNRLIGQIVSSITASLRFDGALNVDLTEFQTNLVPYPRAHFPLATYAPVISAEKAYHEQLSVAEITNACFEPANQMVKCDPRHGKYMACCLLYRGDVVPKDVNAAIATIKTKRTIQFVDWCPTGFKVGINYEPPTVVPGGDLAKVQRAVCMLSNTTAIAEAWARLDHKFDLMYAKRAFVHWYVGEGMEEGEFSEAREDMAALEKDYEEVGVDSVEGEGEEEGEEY

Substance | Kd [1] | Kd [2] | Kd [3]
Abl2 with MBP cleaved off (from UniProt Q4JIM5 74-1182) (enzyme) | 0.17 µM |  | 
MBP-tagged Abl2-557-688 (from UniProt Q4JIM5 557-688) (domain or fragment) | 1.3 µM |  | 

Continued by falling Kd [1], values first:

Kd [1] | Kd [2] | Kd [3] | Substance
0.7 µM |  |  | Abl2-557-C (from UniProt Q4JIM5 557-1182) (domain or fragment)
0.24 µM |  |  | Abl2-N-688 (from UniProt Q4JIM5 74-688) (domain or fragment)
0.21 µM | 0.36 µM | > 3 µM | MBP-tagged Abl2 (from UniProt Q4JIM5 74-1182) (enzyme)
